First the molecules themselves.
B1: Protein C-ets-2 (Homo sapiens), P15036 (parent)
chain: MNDFGIKNMDQVAPVANSYRGTLKRQPAFDTFDGSLFAVFPSLNEEQTLQEVPTGLDSISHDSANCELPLLTPCSKAVMSQALKATFSGFKKEQRRLGIPKNPWLWSEQQVCQWLLWATNEFSLVNVNLQRFGMNGQMLCNLGKERFLELAPDFVGDILWEHLEQMIKENQEKTEDQYEENSHLTSVPHWINSNTLGFGTEQAPYGMQTQNYPKGGLLDSMCPASTPSVLSSEQEFQMFPKSRLSSVSVTYCSVSQDFPGSNLNLLTNNSGTPKDHDSPENGADSFESSDSLLQSWNSQSSLLDVQRVPSFESFEDDCSQSLCLNKPTMSFKDYIQERSDPVEQGKPVIPAAVLAGFTGSGPIQLWQFLLELLSDKSCQSFISWTGDGWEFKLADPDEVARRWGKRKNKPKMNYEKLSRGLRYYYDKNIIHKTSGKRYVYRFVCDLQNLLGFTPEELHAILGVQPDTED
B2: Protein C-ets-1 (Homo sapiens), P14921-1 (parent)
chain: MKAAVDLKPTLTIIKTEKVDLELFPSPDMECADVPLLTPSSKEMMSQALKATFSGFTKEQQRLGIPKDPRQWTETHVRDWVMWAVNEFSLKGVDFQKFCMNGAALCALGKDCFLELAPDFVGDILWEHLEILQKEDVKPYQVNGVNPAYPESRYTSDYFISYGIEHAQCVPPSEFSEPSFITESYQTLHPISSEELLSLKYENDYPSVILRDPLQTDTLQNDYFAIKQEVVTPDNMCMGRTSRGKLGGQDSFESIESYDSCDRLTQSWSSQSSFNSLQRVPSYDSFDSEDYPAALPNHKPKGTFKDYVRDRADLNKDKPVIPAAALAGYTGSGPIQLWQFLLELLTDKSCQSFISWTGDGWEFKLSDPDEVARRWGKRKNKPKMNYEKLSRGLRYYYDKNIIHKTAGKRYVYRFVCDLQSLLGYTPEELHAMLDVKPDADE

The source of these data is IntAct's records for PubMed 25117710.

The first assay covers variants of B1. As to conditions: with cop1_human COP1, Q8NHY2.
Target sequence in this assay (Q8NHY2 whole entry): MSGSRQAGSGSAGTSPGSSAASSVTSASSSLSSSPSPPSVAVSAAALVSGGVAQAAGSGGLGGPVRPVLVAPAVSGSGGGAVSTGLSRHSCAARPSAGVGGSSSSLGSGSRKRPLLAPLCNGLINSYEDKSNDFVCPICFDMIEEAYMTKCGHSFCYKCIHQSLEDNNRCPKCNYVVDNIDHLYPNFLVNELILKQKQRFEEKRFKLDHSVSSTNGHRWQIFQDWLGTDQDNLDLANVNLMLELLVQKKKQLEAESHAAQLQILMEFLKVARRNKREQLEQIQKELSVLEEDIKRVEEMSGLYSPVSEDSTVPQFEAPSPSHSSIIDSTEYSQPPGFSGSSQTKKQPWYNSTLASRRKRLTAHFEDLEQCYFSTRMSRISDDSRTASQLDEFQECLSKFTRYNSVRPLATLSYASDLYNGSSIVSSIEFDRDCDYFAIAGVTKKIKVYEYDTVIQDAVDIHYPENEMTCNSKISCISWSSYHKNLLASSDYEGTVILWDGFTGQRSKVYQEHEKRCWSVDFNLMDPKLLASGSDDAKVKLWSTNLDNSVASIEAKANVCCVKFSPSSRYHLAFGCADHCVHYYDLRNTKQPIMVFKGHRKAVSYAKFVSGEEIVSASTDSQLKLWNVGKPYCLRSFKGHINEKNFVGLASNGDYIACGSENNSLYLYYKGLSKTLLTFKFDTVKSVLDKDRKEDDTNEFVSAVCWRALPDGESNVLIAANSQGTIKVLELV
V308A;P309A: the “effect of a mutation on the interaction” value is “decreasing interaction strength”.
Consider V52A;P53A, for which the “effect of a mutation on the interaction” value is recorded as “decreasing interaction strength”.
As for V52A;P53A;V308A;P309A, the “effect of a mutation on the interaction” value was “disrupting interaction strength”.

The next assay covers variants of B2. As to conditions: with cop1_human COP1, Q8NHY2.
Target sequence in this assay (Q8NHY2 whole entry): as above
As to S276D;Y283F, the “effect of a mutation on the interaction” value is on record as “increasing interaction strength”.
S276D;S282D;Y283F: the “effect of a mutation on the interaction” value is “increasing interaction strength”.
Still for that read-out and setting: with Y283F the entry was “increasing interaction strength”.
Take S276A;S282D;Y283F: the “effect of a mutation on the interaction” value was “increasing interaction strength”.
Same read-out and setting: with S282D;Y283F the entry was “increasing interaction strength”; with S282A;Y283F, “increasing interaction strength”.

In another assay the parent is B2. As to conditions: with cop1_human COP1, Q8NHY2. The source holds these as a separate data set.
Target sequence in this assay (Q8NHY2 whole entry): as above
V280A;P281A: the “effect of a mutation on the interaction” value is “disrupting interaction strength”.
